# Experimental data as given in patent publication US20240034757A1 (OXFORD UNIVERSITY INNOVATION, published 2024).
# Residue numbers refer to the chain shown, from its start.
# T1: CXCL9_HUMAN (human, UniProt Q07325 23-125)
# T1 sequence: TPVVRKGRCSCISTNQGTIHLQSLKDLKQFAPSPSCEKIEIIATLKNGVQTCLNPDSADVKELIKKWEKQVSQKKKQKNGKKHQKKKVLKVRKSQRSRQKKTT
# T2: CXCL13_HUMAN (human, UniProt O43927 23-109)
# T2 sequence: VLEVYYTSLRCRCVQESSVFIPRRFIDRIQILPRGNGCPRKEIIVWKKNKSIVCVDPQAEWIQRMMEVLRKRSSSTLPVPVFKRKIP
# T3: CXCL11_HUMAN (human, UniProt O14625 22-94)
# T3 sequence: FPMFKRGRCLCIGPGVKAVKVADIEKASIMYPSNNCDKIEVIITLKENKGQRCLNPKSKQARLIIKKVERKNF
# T4: CXCL14_HUMAN (human, UniProt O95715 35-111)
# T4 sequence: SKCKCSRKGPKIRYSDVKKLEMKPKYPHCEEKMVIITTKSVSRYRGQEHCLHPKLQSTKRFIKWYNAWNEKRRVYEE
# T5: CXCL10_HUMAN (human, UniProt P02778 22-98)
# T5 sequence: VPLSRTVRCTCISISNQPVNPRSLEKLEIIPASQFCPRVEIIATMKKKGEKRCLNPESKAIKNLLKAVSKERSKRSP
# T6: CXCL3_HUMAN (human, UniProt P19876 35-107)
# T6 sequence: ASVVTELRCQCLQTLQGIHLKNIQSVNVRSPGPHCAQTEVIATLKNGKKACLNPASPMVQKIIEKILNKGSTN
# T7: CXCL6_HUMAN (human, UniProt P80162 38-114)
# T7 sequence: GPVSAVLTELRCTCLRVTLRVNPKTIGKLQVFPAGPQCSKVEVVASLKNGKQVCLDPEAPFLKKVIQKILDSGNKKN
# T8: CXCL2_HUMAN (human, UniProt P19875 35-107)
# T8 sequence: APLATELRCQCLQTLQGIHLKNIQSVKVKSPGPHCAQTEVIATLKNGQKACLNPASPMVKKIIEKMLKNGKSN
# T9: CXCL1_HUMAN (human, UniProt P09341 35-107)
# T9 sequence: T8 sequence with P2S, L3V, L20P, K27N, Q48R, M58I, K68N, N69S, G70D
# T10: CXCL8_HUMAN (human, UniProt P10145 28-99)
# T10 sequence: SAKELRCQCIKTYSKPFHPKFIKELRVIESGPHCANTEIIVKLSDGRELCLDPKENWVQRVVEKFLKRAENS
# T11: P1156_IXORI (Ixodes ricinus, UniProt V5HBW0 29-108)
# T11 sequence: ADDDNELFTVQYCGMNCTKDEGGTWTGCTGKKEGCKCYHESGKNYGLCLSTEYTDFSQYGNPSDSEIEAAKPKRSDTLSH
# T12: P1229_IXORI (Ixodes ricinus, UniProt A0A0K8R4R9 32-108)
# T12 sequence: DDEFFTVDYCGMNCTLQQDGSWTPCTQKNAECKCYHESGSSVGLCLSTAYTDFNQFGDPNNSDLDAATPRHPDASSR
# T13: P1142_AMBCA (Amblyomma cajennense, UniProt A0A023FBW4 26-97)
# T13 sequence: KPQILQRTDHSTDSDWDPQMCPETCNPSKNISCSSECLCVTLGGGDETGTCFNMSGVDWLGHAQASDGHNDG
# T14: P1168_IXORI (Ixodes ricinus, UniProt A0A0K8RCU3 25-106)
# T14 sequence: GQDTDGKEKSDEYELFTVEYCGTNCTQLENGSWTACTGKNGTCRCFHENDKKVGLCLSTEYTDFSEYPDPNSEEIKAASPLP
# T15: P1170_IXORI (Ixodes ricinus, UniProt A0A0K8RD51 29-102)
# T15 sequence: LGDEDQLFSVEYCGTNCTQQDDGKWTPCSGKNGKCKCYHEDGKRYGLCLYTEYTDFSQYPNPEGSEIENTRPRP
# T16: P1132_IXORI (Ixodes ricinus, UniProt V5GZ08 29-106)
# T16 sequence: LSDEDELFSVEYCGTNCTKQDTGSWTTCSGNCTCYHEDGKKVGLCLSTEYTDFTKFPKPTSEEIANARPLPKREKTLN
# T17: P1095_IXORI (Ixodes ricinus, UniProt A0A0K8RCE3 24-112)
# T17 sequence: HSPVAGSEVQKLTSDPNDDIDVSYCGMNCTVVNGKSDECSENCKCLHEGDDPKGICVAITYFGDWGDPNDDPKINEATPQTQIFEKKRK
# T18: P1128_IXORI (Ixodes ricinus, UniProt A0A0K8R6B3 19-90)
# T18 sequence: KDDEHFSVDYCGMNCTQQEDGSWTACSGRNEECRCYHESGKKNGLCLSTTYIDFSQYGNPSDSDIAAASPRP
# T19: P1174_IXORI (Ixodes ricinus, UniProt V5I3C5 28-104)
# T19 sequence: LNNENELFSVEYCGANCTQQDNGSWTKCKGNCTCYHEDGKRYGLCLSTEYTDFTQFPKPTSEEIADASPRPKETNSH
# T20: P1127_IXORI (Ixodes ricinus, UniProt A0A0K8RJ67 29-108)
# T20 sequence: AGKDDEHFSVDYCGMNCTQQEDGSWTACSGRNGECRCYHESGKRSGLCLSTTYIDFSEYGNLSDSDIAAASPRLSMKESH
# T21: P1166_IXORI (Ixodes ricinus, UniProt A0A0K8RE99 25-110)
# T21 sequence: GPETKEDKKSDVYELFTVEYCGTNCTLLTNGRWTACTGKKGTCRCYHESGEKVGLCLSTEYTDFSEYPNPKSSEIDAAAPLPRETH
# T22: P1096_IXORI (Ixodes ricinus, UniProt A0A0K8RKE4 24-114)
# T22 sequence: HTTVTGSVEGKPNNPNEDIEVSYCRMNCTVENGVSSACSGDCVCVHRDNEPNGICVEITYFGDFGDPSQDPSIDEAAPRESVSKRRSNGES
# T23: P1134_IXORI (Ixodes ricinus, UniProt A0A0K8RAI0 32-135)
# T23 sequence: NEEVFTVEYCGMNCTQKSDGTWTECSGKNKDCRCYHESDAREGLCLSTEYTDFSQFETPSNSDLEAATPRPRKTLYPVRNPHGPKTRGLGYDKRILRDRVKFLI
# T24: P1162_IXORI (Ixodes ricinus, UniProt A0A0K8RDJ1 29-99)
# T24 sequence: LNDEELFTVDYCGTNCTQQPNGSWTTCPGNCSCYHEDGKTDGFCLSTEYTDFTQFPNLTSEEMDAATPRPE
# B1: P1172_IXORI (other)
# chain: T24 sequence with N2H, D3E, E4D, L6I, Q18K, P20S
# B2: CXCL4_HUMAN (ligand)
# chain: EAEEDGDLQCLCVKTTSQVRPRHITSLEVIKAGPHCPTAQLIATLKNGRKICLDLQAPLYKKIIKKLLES
# Legend:
# CXCL9_HUMAN = target: T1, CXCL9_HUMAN; assay: BLI
# CXCL13_HUMAN = target: T2, CXCL13_HUMAN; assay: BLI
# CXCL11_HUMAN = target: T3, CXCL11_HUMAN; assay: BLI
# CXCL14_HUMAN = target: T4, CXCL14_HUMAN; assay: BLI
# CXCL12_HUMAN = CXCL12_HUMAN (human, UniProt P48061 22-89); assay: BLI
# CXCL10_HUMAN = target: T5, CXCL10_HUMAN; assay: BLI
# CXCL3_HUMAN = target: T6, CXCL3_HUMAN; assay: BLI [Cont.]
# CXCL6_HUMAN = target: T7, CXCL6_HUMAN; assay: BLI [Cont.]
# CXCL2_HUMAN = target: T8, CXCL2_HUMAN; assay: BLI [Cont.]
# CXCL1_HUMAN = target: T9, CXCL1_HUMAN; assay: yeast surface display FACS re-test; note: test concentration or dose not given here
# CXCL8_HUMAN = target: T10, CXCL8_HUMAN; assay: yeast surface display FACS re-test; note: test concentration or dose not given here
# P1156_IXORI = target: T11, P1156_IXORI; assay: BLI [Cont.) C]
# P1229_IXORI = target: T12, P1229_IXORI; assay: BLI [Cont.]
# P1080_IXORI = P1080_IXORI (Ixodes ricinus, UniProt A0A090XBL6 20-118); assay: BLI [Cont.]
# P1142_AMBCA = target: T13, P1142_AMBCA; assay: BLI [Cont.]
# P1172_IXORI = target: B1; assay: BLI [Cont.]
# P1168_IXORI = target: T14, P1168_IXORI; assay: BLI [Cont.]
# P1170_IXORI = target: T15, P1170_IXORI; assay: BLI [Cont.]
# P1132_IXORI = target: T16, P1132_IXORI; assay: BLI [Cont.]
# P1095_IXORI = target: T17, P1095_IXORI; assay: BLI [Cont.]
# P1128_IXORI = target: T18, P1128_IXORI; assay: BLI [Cont.]
# P1174_IXORI = target: T19, P1174_IXORI; assay: BLI [Cont.]
# P1127_IXORI = target: T20, P1127_IXORI; assay: BLI [Cont.]
# P1166_IXORI = target: T21, P1166_IXORI; assay: BLI [Cont.]
# P1096_IXORI = target: T22, P1096_IXORI; assay: BLI [Cont.]
# P1134_IXORI = target: T23, P1134_IXORI; assay: BLI [Cont.]
# P1162_IXORI = target: T24, P1162_IXORI; assay: BLI [Cont.]
# CXCL12_HUMAN, sequence (P48061 22-89 limits assumed): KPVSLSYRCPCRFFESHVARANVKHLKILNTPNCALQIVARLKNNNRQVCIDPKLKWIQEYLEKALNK
# P1080_IXORI, sequence (A0A090XBL6 20-118): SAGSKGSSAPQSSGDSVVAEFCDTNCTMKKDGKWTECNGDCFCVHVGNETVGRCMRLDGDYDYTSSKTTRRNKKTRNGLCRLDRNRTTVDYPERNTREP
binder,measurement,setting,value
B1,binding result,CXCL9_HUMAN,no binding (tested: 300 nM)
same,binding result,CXCL13_HUMAN,no binding (tested: 300 nM)
same,binding result,CXCL11_HUMAN,no binding (tested: 300 nM)
same,binding result,CXCL14_HUMAN,no binding (tested: 300 nM)
same,binding result,CXCL12_HUMAN,no binding (tested: 300 nM)
same,binding result,CXCL10_HUMAN,no binding (tested: 300 nM)
same,binding result,CXCL3_HUMAN,no binding (tested: 300 nM)
same,binding result,CXCL6_HUMAN,no binding (tested: 300 nM)
same,Kd,CXCL2_HUMAN,26 nM
same,% cells over threshold fluorescence,CXCL1_HUMAN,65%
same,% cells over threshold fluorescence,CXCL8_HUMAN,41%
B2,binding result,P1156_IXORI,no binding (tested: 300 nM)
same,binding result,P1229_IXORI,no binding (tested: 300 nM)
same,Kd,P1080_IXORI,2310 nM
same,Kd,P1142_AMBCA,381 nM
same,binding result,P1172_IXORI,no binding (tested: 300 nM)
same,binding result,P1168_IXORI,no binding (tested: 300 nM)
same,binding result,P1170_IXORI,no binding (tested: 300 nM)
same,binding result,P1132_IXORI,no binding (tested: 300 nM)
same,binding result,P1095_IXORI,no binding (tested: 300 nM)
same,binding result,P1128_IXORI,no binding (tested: 300 nM)
same,binding result,P1174_IXORI,no binding (tested: 300 nM)
same,binding result,P1127_IXORI,no binding (tested: 300 nM)
same,binding result,P1166_IXORI,no binding (tested: 300 nM)
same,binding result,P1096_IXORI,no binding (tested: 300 nM)
same,binding result,P1134_IXORI,no binding (tested: 300 nM)
same,binding result,P1162_IXORI,no binding (tested: 300 nM)
